Key:
RSV A2 바이러스의 F 단백질 = RSV A2 바이러스의 F 단백질 (Respiratory Syncytial Virus (RSV), …, UniProt P03420 26-574); assay: cell-based or functional assay
[1] = target: T1, RSV 긴 균주(Long strain)로부터의 HIS 태그 포함 재조합 F 단백질 (Respiratory Syncytial Virus (RSV), Long …, UniProt P12568 26-524); assay: direct ELISA, purified HIS-tagged F on Ni-NTA HisSorp plates (Fig. 3b right)
T1 construct: not shown: poly-HIS tag
T1 sequence (P12568 26-524): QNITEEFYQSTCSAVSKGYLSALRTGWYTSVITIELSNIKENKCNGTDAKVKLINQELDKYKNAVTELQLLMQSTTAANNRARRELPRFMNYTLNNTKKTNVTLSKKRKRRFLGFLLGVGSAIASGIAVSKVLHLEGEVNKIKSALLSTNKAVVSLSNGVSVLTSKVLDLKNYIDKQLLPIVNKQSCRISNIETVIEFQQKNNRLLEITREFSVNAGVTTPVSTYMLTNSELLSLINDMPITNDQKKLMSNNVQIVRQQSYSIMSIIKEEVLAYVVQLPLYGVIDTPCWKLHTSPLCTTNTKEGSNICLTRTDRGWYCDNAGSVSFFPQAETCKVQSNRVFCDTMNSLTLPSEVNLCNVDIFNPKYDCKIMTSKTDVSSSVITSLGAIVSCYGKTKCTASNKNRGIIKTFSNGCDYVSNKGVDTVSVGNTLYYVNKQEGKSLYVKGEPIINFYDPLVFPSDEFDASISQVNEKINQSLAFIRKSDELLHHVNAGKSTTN

Chain of RSV A2 바이러스의 F 단백질 (P03420 26-574): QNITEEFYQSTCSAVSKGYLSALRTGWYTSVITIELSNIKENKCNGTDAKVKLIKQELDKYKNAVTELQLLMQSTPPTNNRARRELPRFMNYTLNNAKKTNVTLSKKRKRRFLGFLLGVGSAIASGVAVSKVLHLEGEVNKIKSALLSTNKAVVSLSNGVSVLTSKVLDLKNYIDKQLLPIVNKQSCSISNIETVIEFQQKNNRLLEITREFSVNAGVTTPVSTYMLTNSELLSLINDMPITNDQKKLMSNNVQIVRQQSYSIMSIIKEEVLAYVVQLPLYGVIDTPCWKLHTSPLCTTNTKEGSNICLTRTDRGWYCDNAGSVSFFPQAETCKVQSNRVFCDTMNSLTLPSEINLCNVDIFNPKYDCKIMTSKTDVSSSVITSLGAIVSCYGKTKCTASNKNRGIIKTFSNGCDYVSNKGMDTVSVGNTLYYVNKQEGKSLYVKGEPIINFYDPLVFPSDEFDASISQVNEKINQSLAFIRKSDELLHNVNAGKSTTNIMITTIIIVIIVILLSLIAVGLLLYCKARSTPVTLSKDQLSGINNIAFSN

B1: AM22 (antibody, V domains shown)
VH: QVQLVQSGAEVKKPGATVKVSCKISGHTLIKLSIHWVRQAPGKGLEWMGGYEGEVDEIFYAQKFQHRLTVIADTATDTVYMELGRLTSDDTAVYFCGTLGVTVTEAGLGIDDYWGQGTLVTVSS
VL: EIVLTQSPGTLSLSPGERATLSCRASQIVSRNHLAWYQQKPGQAPRLLIFGASSRATGIPVRFSGSGSGTDFTLTINGLAPEDFAVYYCLSSDSSIFTFGPGTKVDFK
notes: also called 재조합 AM22 mAb; AM22 항체
B1 was tested, and the “IC50, RSV A2 neutralisation on HEp2 cells (standard TCID50 culture assay)” value (RSV A2 바이러스의 F 단백질) was 1.15 ng/㎖ and the binding result [1] was “no binding”.
